± gives the standard deviation of the averaged measurements.
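Further: ATP exposure 15 min at 22 °C before imaging.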

The subject of the series is ATP. Put plainly: switch fluorescence ratio, 500 uM ATP over buffer (Cy3 cluster intensity, sum of 5 cycles each) (fold (ratio)); higher = stronger signal-on switching upon ATP binding; sequences stand for … in TCGTCGGCAGCGTCAGATGTGTATAAGAGACAGTTTTTTTTTTTTTTTTTTTTTTTTT…TC. To be noted: aptamer strand: ATP DNA aptamer (quencher-CACCTGGGGGAGTATTGCGGAGGAAGG + anchor), 100 nM annealed; ATP concentration: 500 uM. A digest of the protocol:
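Cy3-labelled switching-strand clusters on a modified Illumina MiSeq flow-cell were annealed to 100 nM quencher-labelled ATP aptamer, imaged in selection buffer, then imaged after 15 min with 500 uM ATP at 22 °C. Five buffer/ATP cycles ran, with NaOH stripping and re-annealing between them. The fluorescence ratio is summed target-cycle over summed buffer-cycle Cy3 intensity per cluster, averaged per switch-domain sequence. Clusters outside 100-1000 RFU were excluded.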
In the case of CTTGCTGGTT, the switch fluorescence ratio was 0.999 ± 0.028. For the sequence TGGGTGATAG, the switch fluorescence ratio came out at 0.99 ± 0.035. Consider ATGGCAGCTG, for which the switch fluorescence ratio was 0.9949 ± 0.0095. As to TTTTTAATCA, the switch fluorescence ratio was 0.987 ± 0.014. For AGAGTGGTGG, the switch fluorescence ratio came to 0.9769 ± 0.0097. With CTTGGAGTTT the figure was 1 ± 0.034.

Take AATGGTTTGG: the switch fluorescence ratio was 0.985 ± 0.013. As to GGGGGGTCTA, the switch fluorescence ratio came to 1.02 ± 0.024. Regarding TTCTGGCACA, the switch fluorescence ratio amounted to 1.02 ± 0.029. CGGTGTTAAC: the switch fluorescence ratio amounted to 0.957 ± 0.036. Take AAAATTCAAG: the switch fluorescence ratio is 0.983 ± 0.016. For the sequence CTGGGTTTTT, the switch fluorescence ratio stood at 0.992 ± 0.03. Consider GAAGTGGGGT, for which the switch fluorescence ratio was found to be 0.995 ± 0.015. With TTGCAGTTGT, the switch fluorescence ratio was determined as 0.993 ± 0.041.

In the case of AGCTACGGTG, the switch fluorescence ratio amounted to 1.044 ± 0.0052. With ACTCGTGTAG the figure was 1.04 ± 0.022. As for CACTTGGAGC, the switch fluorescence ratio turned out to be 0.944 ± 0.059. As for ACGGGGTAAT, the switch fluorescence ratio was determined as 1.22 ± 0.35. Regarding CATGATCCGT, the switch fluorescence ratio stood at 1.008 ± 0.0093. On to ACGCACGATT, for which the switch fluorescence ratio came out at 1.37 ± 0.1. For the sequence AAAAAAAACC, the switch fluorescence ratio stood at 1.4 ± 0.33. Consider AAGTCACGGT, for which the switch fluorescence ratio was determined as 1.09 ± 0.02. As for CCGAGGGCGC, the switch fluorescence ratio stood at 1.2 ± 0.031. GTCTGAGGTT: the switch fluorescence ratio came to 0.963 ± 0.015. Turning to TGGATCTTAT, the switch fluorescence ratio was found to be 1.01 ± 0.034. Take TTTCCTTGCT: the switch fluorescence ratio is 1.49 ± 0.59. With CTTAGATGGG the figure was 0.9579 ± 0.0064. For TCGCTCCTGG, the switch fluorescence ratio came to 1 ± 0.046. For GGGGGGATTT the value was 1.02 ± 0.063. Regarding ACCAGGTGGG, the switch fluorescence ratio was found to be 2.75 ± 0.75. In the case of AATTTGATGT, the switch fluorescence ratio turned out to be 1.005 ± 0.0056. As to GTTGCGGGGT, the switch fluorescence ratio was 1.02 ± 0.029. Consider TTTAGGTTGT, for which the switch fluorescence ratio worked out at 0.9984 ± 0.0073. For GGGTAGGTG, the switch fluorescence ratio is 1.13 ± 0.039.

As to TAAAGATATC, the switch fluorescence ratio turned out to be 0.972 ± 0.028. As to CGCGGTGCGG, the switch fluorescence ratio turned out to be 1.005 ± 0.0076. With TTTCCTCCCT the figure was 1.84 ± 0.5; with AAATTATAGG, 1.01 ± 0.032. In the case of AGAGGGACAT, the switch fluorescence ratio turned out to be 1.09 ± 0.1. For TGAGTTTCCA, the switch fluorescence ratio came out at 0.958 ± 0.011. For TCTGATTGGT, the switch fluorescence ratio was found to be 0.9945 ± 0.0034. Consider GATTTGGCGA, for which the switch fluorescence ratio stood at 0.992 ± 0.011.

With TTTTGATACT, the switch fluorescence ratio is 1.0096 ± 0.00024.

As for GATAAGTTGG, the switch fluorescence ratio worked out at 0.935 ± 0.09. With TACGAGTCGT the figure was 1.01 ± 0.022; with CTGTTGTTG, 1 ± 0.01. As to TTTGGGTGAG, the switch fluorescence ratio was 0.993 ± 0.023. With GCGGAGAGAG, the switch fluorescence ratio turned out to be 0.998 ± 0.019. For AAAAGCGCGG the value was 1.13 ± 0.074; for ATTGGGGTG, 1.03 ± 0.11. Regarding ATAGCTCTTA, the switch fluorescence ratio came to 0.9764 ± 0.0074. On to TTTTAAGAGA, for which the switch fluorescence ratio was 1.01 ± 0.017. In the case of CGTATGCCGG, the switch fluorescence ratio turned out to be 0.9999 ± 0.0091. Take ATGTCGTGTC: the switch fluorescence ratio is 1 ± 0.013. Regarding GGTGGGAACA, the switch fluorescence ratio turned out to be 0.992 ± 0.03.

For the sequence GTTATTTTGT, the switch fluorescence ratio was determined as 0.99 ± 0.019. Consider ATAGGGTTTC, for which the switch fluorescence ratio is 0.99 ± 0.01.

With GGTATTTATC, the switch fluorescence ratio was 0.986 ± 0.038. With TGCGTGTGTC the figure was 1.05 ± 0.024; with AAGAGACAGG, 1.05 ± 0.042.

Consider TACGTTGAGC, for which the switch fluorescence ratio turned out to be 1.02 ± 0.02. For GATTTTTTTT the value was 0.989 ± 0.029; for ACTTGTCGCG, 1.02 ± 0.033; for GCGAGTTGGG, 0.985 ± 0.022. For TTAGCGGCTG the value was 0.9585 ± 0.0026. Consider GATTTTGGTG, for which the switch fluorescence ratio was 0.971 ± 0.023. As for ATTGCGGTCA, the switch fluorescence ratio stood at 1.01 ± 0.048. Consider GTGTGTGGTC, for which the switch fluorescence ratio was found to be 1 ± 0.021.

GAACGGTGTG: the switch fluorescence ratio stood at 0.996 ± 0.0057. For CATGTTCGGG the value was 0.971 ± 0.012; for GCATTAGGTT, 1.03 ± 0.019. With AAGTCTATAA, the switch fluorescence ratio is 1.02 ± 0.046. For TTTATCAATT the value was 0.991 ± 0.063; for CTAAACAGAA, 0.9996 ± 0.0027. With TCACAGTTAG, the switch fluorescence ratio amounted to 0.998 ± 0.046.

Turning to TCAATTTGGG, the switch fluorescence ratio stood at 0.971 ± 0.022. Consider TCTGTTGACG, for which the switch fluorescence ratio amounted to 1.0236 ± 0.00081. Take ATTGTGATCT: the switch fluorescence ratio turned out to be 0.989 ± 0.021. With AGGGGGGGG the figure was 1.03 ± 0.085.

The values are drawn from the supplement of paper PMC10126150.
